Where no end group is shown, it is not given here.
B1: PapD (wild type) (other)
chain: AVSLDRTRAVFDGSEKSMTLDISNDNKQLPYLAQAWIENENQEKIITGPVIATPPVQRLEPGAKSMVRLSTTPDISKLPQDRESLFYFNLREIPPRSEKANVLQIALQTKIKLFYRPAAIKTRPNEVWQDQLILNKVSGGYRIENPTPYYVTVIGLGGSEKQAEEGEFETVMLSPRSEQTVKSANYNTPYLSYINDYGGRPVLSFICNGSRCSVKKEK
notes: also called WT PapD; native PapD

Columns and labels:
[1] = target: T1, maltose binding protein (MBP) (UniProt P0AEX9 27-392 = MBP); experiment: co-expression, amylose affinity chromatography
T1 construct: also called MBP control

[2] = target: T2, modified PapG peptide, Ser-9′ substituted by Cys, labelled with 5-IAF (E. coli); experiment: fluorescence intensity at 514 nm of the 5-IAF-labelled PapG peptide against increasing PapD concentration
T2 construct: also called labelled peptide; fluorescence labelled PapG analogue

[3] = target: B1; experiment: ELISA, peptide coated on wells, anti-PapD antiserum
[4] = target: B1; experiment: ELISA, peptide coated on wells, PapD in solution, anti-PapD antiserum
[5] = target: B1; experiment: ELISA, peptide coated on wells, PapD in solution
[6] = target: B1; experiment: ELISA, peptide coated on wells (2.5 pmol/50 µl), PapD in solution
[7] = target: T3, PapD Arg-8-Gly (E. coli, UniProt P15319 22-239); experiment: native polyacrylamide gel mobility shift
T3 construct: also called R8G; pR8G
T3 sequence: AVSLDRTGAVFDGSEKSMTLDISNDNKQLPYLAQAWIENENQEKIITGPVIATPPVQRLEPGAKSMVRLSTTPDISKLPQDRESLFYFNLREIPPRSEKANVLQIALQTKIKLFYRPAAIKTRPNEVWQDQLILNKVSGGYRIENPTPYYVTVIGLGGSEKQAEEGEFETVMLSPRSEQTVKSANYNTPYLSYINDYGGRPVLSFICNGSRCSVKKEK

[8] = target: T4, PapD Arg-8-Ala (E. coli, UniProt P15319 22-239); experiment: native polyacrylamide gel mobility shift
T4 construct: also called R8A; pR8A
T4 sequence: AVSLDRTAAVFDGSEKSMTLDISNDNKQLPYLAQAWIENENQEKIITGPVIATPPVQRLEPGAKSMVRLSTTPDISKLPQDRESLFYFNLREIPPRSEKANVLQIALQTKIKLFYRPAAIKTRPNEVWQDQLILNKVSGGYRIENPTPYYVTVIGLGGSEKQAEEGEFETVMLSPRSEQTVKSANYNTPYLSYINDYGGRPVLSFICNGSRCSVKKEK

[9] = target: T5, PapD Lys-112-Ala (E. coli, UniProt P15319 22-239); experiment: native polyacrylamide gel mobility shift
T5 sequence: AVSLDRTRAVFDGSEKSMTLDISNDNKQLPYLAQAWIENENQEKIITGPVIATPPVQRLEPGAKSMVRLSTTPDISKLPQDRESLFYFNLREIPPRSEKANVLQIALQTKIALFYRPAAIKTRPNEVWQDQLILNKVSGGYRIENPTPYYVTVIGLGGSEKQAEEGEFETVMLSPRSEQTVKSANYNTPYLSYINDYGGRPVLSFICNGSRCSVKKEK

[10] = target: B1; experiment: soluble inhibition ELISA: 25-fold molar excess of peptide, 100 pmol/well PapD, G1′-19′WT-coated wells
[11] = target: B1; experiment: ELISA, peptide coated on wells, 200 pmol PapD, anti-PapD antiserum
[12] = target: B1; experiment: inhibition ELISA: PapD preincubated with peptide, MBP-G1′-140′-coated wells
[13] = target: B1; experiment: soluble inhibition ELISA on G1′-19′WT-coated wells

With B1 the binding result [1] was “no binding” and the Kd [2] was 2500 nM.

B2: SEQ ID NO 22 (peptide)
peptide: QHHYYDLWQDHYKMPY
notes: also called one of the other three second-site peptides of PapG (region 120′ to 156′)
B2: no binding (tested: 200 pmol/50 ml of PapD) [3].

B3: E1′-19′WT (peptide)
peptide: QNLIAGPFSATATLVASYS
notes: Water insoluble peptide; also called PapE peptide
B3: binds [4].

SGSMTMVLSFP (Water insoluble peptide) [G1′-11′WT]: binds [5].

KKLEAGNYFAVLGFRVDYE (also called PapH peptide) [H1′-19′WT]: no binding [6].

B4: G1′-19′WT (peptide)
peptide: GKRKPGELSGSMTMVLSFP
notes: Synthetic peptide; residues numbered from the C-terminus (Pro-1′); also called PapG 19-mer peptide; G-peptide
B4: no binding [7]; no binding [8]; no binding [9]. The “% Inhibition” value [10] was 63%.

GILNGGDFQTTASMAMIYN (also called PapF peptide) [F1′-19′WT]: binds [4].

B5: SEQ ID NO 19 (peptide)
peptide: LPATNTLMLSFDNVGG
notes: as for B2
B5: no binding (tested: 200 pmol/50 ml of PapD) [3].

B6: SEQ ID NO 21 (peptide)
peptide: YKMPYDQIKQLPATNT
notes: as for B2
B6: no binding (tested: 200 pmol/50 ml of PapD) [3].

DQIKQLPATNTLMLSF (also called site 2 peptide) [G125′-140′]: binds [11].

KSVVPGDYEATATFELTYR (also called PapK peptide; K-peptide) [K1′-19′WT]: binds [4].

KPGELSGSMTMVLSFP [G1′-16′WT]: binds [5].

TMVLSFP [G1′-7′WT] was tested, and the “% Inhibition” value [10] was 49%.

MVLSFP [G1′-6′]: binds [12].

B7: G1′-19′SV (peptide)
peptide: GKRKPVELSGSMTMVLSSP
notes: Variant of G1′-19′WT with Phe-2′ to Ser and Gly-14′ to Val
B7: binds [13].

B8: G1′-8′WT (peptide)
peptide: MTMVLSFP
notes: also called PapG 8-mer peptide; octameric peptide
B8: binds [12].

With GKRKPGELSGSMTMVLSFP-NH2 (also called G1′-19′NH2) [G1′-19′amide] the “% Inhibition” value [10] was 56%.

— US7025971 (WASHINGTON UNIVERSITY, dated 2006)
